# Measured values as given in patent publication US20050250090A1, “Assay systems and methods for detecting molecules that interact with SK2 channels” (priority 2003, published 2005).
# Target: human SK2 isoform hSK2A+ (small-conductance calcium-activated potassium channel protein), stably exp (human), Q9H2S1
# Assay: cell-based or functional assay
# Sequence of human SK2 isoform hSK2A+ (small-conductance calcium-activated potassium channel protein), stably exp (human), Q9H2S1 (Q9H2S1 other isoform, or with tags, fused parts or gaps): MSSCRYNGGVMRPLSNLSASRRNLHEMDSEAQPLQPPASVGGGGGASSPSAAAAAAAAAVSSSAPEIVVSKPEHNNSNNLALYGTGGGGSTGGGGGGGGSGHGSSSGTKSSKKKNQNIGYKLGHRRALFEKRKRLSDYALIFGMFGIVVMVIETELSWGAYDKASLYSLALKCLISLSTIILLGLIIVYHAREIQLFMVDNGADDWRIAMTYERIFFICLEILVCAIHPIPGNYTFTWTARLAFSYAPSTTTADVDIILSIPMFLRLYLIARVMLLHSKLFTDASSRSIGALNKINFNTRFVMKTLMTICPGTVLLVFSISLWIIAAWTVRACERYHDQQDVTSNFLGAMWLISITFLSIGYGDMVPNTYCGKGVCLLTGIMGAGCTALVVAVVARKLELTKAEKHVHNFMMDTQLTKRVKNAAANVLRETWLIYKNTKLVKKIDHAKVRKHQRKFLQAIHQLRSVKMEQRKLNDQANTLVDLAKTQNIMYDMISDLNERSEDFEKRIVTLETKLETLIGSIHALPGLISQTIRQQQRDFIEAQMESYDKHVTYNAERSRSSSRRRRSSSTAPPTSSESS
binder,measurement,value
"AFCNLRMCQLSCRSLGLLGKCIGDKCECVKH (modifications not checked) [scyllatoxin, P16341 1-31]",magnitude of the ATP/Tg induced decrease in fluorescence; concentration printed as 'tested at' (FIG. 9 concentration series),1.1 nM
